Test results from US20060257928.

Target: biotinylated H3 peptide (first 21 amino acids of Histone H3 with a Biotin label on the CO2H terminus, Upstate Biotechnology), P68431

B1: SUV39H1(82-412)-GST protein (protein)
chain: CVRILKQFHKDLERELLRRHHRSKTPRHLDPSLANYLVQKAKQRRALRRWEQELNAKRSHLGRITVENEVDLDGPPRAFVYINEYRVGEGITLNQVAVGCECQDCLWAPTGGCCPGASLHKFAYNDQGQVRLRAGLPIYECNSRCRCGYDCPNRVVQKGIRYDLCIFRTDDGRGWGVRTLEKIRKNSFVMEYVGEIITSEEAERRGQIYDRQGATYLFDLDYVEDVYTVDAAYYGNISHFVNHSCDPNLQVYNVFIDNLDERLPRIAFFATRTIRAGEELTFDYNMQVDPVDMESTRMDSNFGLAGLPGSPKKRVRIECKCGTESCRKYLF
Histone methyl transferase activity (radioactive assay, 14C labelled methylated H3 peptide): Histone methyl transferase activity of truncated protein was confirmed by radioactive assay
